How the values were obtained:
[1] = target: GST-HK10_(544–563), GST fusion of the human K10 C-terminal tail region (UniProt P13645); experiment: SPR; BIAcore X, 25°C; GST-HK10(544–563) (500 nM) captured on immobilised goat anti-GST IgG, GST alone on the reference cell; SpsD passed over in increasing concentrations, 5 µl/min; KD from equilibrium response
[2] = target: Canine fibrinogen (canine) (UniProt P68213); experiment: SPR; BIAcore X, 25°C; ligand covalently immobilised on CM5 chip; SpsD passed over in increasing concentrations without regeneration, 5 µl/min, PBS with 0.005% Tween 20; KD from equilibrium response against concentration
[3] = target: Human fibrinogen (human) (UniProt P02671); experiment: as above
Human fibrinogen (human), sequence (P02671 other isoform, or with tags, fused parts or gaps, chain 1 of 3): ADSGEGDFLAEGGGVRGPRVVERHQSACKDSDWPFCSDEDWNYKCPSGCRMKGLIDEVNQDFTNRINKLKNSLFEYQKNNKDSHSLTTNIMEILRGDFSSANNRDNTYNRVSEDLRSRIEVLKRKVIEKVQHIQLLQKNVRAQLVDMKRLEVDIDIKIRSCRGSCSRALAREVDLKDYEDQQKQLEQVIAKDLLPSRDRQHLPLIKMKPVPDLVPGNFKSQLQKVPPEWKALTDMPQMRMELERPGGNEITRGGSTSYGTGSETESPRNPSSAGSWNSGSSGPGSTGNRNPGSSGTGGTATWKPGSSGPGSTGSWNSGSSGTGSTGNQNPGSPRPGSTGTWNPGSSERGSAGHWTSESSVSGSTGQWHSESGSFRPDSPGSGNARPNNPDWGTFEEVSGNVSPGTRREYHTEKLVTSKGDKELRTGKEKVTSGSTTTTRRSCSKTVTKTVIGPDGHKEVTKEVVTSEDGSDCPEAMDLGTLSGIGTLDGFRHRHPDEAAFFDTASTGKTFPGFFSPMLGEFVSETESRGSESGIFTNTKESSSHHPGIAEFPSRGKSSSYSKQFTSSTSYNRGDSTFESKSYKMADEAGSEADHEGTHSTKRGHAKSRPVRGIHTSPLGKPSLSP
Human fibrinogen (human), sequence (P02675 31-491, chain 2 of 3, further chain): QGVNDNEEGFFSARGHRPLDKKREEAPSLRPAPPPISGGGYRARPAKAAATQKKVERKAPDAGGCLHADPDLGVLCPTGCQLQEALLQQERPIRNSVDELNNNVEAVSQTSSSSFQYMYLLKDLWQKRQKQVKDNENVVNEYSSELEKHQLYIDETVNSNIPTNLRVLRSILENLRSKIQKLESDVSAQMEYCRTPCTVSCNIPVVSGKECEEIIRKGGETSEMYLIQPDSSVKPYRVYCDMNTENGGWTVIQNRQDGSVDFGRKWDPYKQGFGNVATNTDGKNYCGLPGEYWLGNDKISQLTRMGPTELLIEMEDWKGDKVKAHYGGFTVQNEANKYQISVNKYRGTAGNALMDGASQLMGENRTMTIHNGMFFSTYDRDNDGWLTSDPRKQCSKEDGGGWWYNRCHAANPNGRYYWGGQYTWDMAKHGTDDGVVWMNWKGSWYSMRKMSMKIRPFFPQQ
Human fibrinogen (human), sequence (P02679 other isoform, or with tags, fused parts or gaps, chain 3 of 3, further chain): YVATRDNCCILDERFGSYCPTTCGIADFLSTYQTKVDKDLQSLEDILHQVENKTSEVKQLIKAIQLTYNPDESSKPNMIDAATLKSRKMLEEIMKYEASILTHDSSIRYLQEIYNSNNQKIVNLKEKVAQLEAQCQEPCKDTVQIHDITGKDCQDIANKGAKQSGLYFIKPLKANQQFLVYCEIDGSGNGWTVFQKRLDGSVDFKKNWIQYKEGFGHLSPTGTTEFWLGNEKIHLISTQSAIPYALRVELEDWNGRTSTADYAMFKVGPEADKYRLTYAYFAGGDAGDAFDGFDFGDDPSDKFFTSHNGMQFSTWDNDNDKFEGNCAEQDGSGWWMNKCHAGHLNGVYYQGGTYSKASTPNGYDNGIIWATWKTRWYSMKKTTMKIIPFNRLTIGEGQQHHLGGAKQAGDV

[4] = target: Human plasma fibronectin (human); experiment: as above
[5] = target: α-elastin, a heterogeneous mixture of soluble peptides obtained from human lung (human); experiment: as above
[6] = target: GST-Fbgγ_(395–411), GST fusion of the human Fbg γ-chain sequence (human) (UniProt P02679); experiment: ELISA; GST-Fbg γ chain or GST coated on microtiter wells; increasing concentrations of SpsD167–519; detected with anti-6-His IgG
[7] = target: Mouse cytokeratin 10 (residues 1–570) (mouse) (UniProt P02535); experiment: ELISA; mouse K10 proteins, GST-HK10(544–563) or GST coated on wells; increasing concentrations of SpsD167–519; detected with anti-SpsD37–519 IgG
Mouse cytokeratin 10 (residues 1–570) (mouse), sequence (P02535 whole entry, the tested form may be a part): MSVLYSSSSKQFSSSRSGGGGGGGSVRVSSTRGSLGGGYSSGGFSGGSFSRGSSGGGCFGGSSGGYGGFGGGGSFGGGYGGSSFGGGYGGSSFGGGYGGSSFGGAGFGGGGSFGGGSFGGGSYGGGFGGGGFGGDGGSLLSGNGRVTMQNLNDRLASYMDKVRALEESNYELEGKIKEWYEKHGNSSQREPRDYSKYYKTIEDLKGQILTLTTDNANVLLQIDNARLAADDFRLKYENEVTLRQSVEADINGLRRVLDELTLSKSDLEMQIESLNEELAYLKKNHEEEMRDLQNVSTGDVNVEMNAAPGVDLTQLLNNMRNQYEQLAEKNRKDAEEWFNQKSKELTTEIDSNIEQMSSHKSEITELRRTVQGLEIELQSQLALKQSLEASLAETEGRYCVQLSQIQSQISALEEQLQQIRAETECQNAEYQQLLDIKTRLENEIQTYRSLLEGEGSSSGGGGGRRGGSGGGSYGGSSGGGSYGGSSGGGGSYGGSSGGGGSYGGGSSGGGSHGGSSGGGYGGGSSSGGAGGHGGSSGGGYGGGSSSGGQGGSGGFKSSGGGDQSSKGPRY

[8] = target: Mouse cytokeratin 10 C-terminal tail region (MK10_(454–570)) (mouse) (UniProt P02535); experiment: as above
Mouse cytokeratin 10 C-terminal tail region (MK10_(454–570)) (mouse), sequence (P02535 454-570): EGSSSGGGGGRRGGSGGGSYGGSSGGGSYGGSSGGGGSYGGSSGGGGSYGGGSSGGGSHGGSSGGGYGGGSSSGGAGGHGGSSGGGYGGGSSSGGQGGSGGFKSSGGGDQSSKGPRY

[9] = target: N-terminal fragment of fibronectin (N29) containing the five N-terminal type I modules (human); experiment: ELISA; Fn (1 µg/well) and Fn fragments (250 ng/well) coated; SpsD167–519 in solution, detected with anti-SpsD37–519 antibody; FnBPB163–480 as control, detected with anti-FnBPB163–480 IgG
[10] = target: Recombinant fibronectin fragment, residues 1266–1908 (extra domain B plus type III modules 8–13 and the initial region of module 14) (UniProt P02751); experiment: as above
Recombinant fibronectin fragment, residues 1266–1908 (extra domain B plus type III modules 8–13 and the initial region of module 14), sequence (P02751 1266-1908): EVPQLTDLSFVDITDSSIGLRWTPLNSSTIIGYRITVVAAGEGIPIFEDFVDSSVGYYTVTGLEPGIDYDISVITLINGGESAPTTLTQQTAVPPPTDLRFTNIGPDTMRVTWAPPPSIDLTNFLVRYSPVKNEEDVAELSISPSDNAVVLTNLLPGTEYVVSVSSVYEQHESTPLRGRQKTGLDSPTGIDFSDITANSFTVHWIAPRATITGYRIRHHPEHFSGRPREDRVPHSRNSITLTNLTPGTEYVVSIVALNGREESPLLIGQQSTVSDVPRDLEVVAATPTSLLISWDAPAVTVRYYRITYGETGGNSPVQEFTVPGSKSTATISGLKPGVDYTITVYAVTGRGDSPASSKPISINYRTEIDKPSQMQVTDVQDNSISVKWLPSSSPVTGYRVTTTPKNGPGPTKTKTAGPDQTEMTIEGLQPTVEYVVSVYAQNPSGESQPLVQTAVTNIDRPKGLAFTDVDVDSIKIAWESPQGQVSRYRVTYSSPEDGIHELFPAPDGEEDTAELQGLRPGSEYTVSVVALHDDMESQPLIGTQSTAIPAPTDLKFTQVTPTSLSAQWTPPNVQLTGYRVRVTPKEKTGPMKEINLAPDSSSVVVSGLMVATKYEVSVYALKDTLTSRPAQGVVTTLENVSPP

[11] = target: GST-HK10_(544–563), GST fusion of the human K10 C-terminal tail region (UniProt P13645); experiment: ELISA; conditions: value read at the highest concentration, 20 µM protein added; immobilized K10 (panel title GST-HK10 544-563) coated in bicarbonate buffer overnight; parent: est. 1.2; read off a plot
[12] = target: Human fibrinogen, P02671-2;P02675;P02679-2; experiment: ELISA; conditions: value read at the highest concentration, 16 µM protein added; immobilized human Fbg coated in bicarbonate buffer overnight; parent: est. 1.5; read off a plot
[13] = target: Human plasma fibronectin; experiment: ELISA; conditions: value read at the highest concentration, 20 µM protein added; immobilized Fn coated in bicarbonate buffer overnight; parent: est. 1.7; read off a plot
[14] = target: α-elastin, a heterogeneous mixture of soluble peptides obtained from human lung; experiment: ELISA; conditions: value read at the highest concentration, 20 µM protein added; immobilized α-elastin coated in bicarbonate buffer overnight; parent: est. 1.8; read off a plot

GST-HK10_(544–563), GST fusion of the human K10 C-terminal tail region, sequence (P13645 544-563): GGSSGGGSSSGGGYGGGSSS

Row | Substance | Kd [1] | Kd [2] | Kd [3] | Kd [4] | Kd [5] | EC50 [6] | EC50 [7] | EC50 [8] | EC50 [9] | EC50 [10] | response [11] | response [12] | response [13] | response [14]
1 | SpsD_(37–519), A domain (N1N2N3 region) of SpsD from S. pseudintermedius strain 326 (domain or fragment) | 906 nM | 367 nM | 380 nM | 2350 nM | 1200 nM | – | – | – | – | – | – | – | – | –
2 | SpsD_(167–519), N2N3 subdomains of the A domain of SpsD from S. pseudintermedius strain 326 (domain or fragment) | 840 nM | 341 nM | 360 nM | 2160 nM | 1020 nM | 320 nM | 1020 nM | 1200 nM | 2210 nM | 1970 nM | – | – | – | –
3 | SpsD_(167–519), N2N3 subdomains of the A domain of SpsD from S. pseudintermedius strain 326 F288A | – | – | – | – | – | – | – | – | – | – | 0.97 A490 | 0.11 A490 | 1.6 A490 | 0.67 A490

From publication PMC3689669
